Here are results for 12 molecules from patent US20260297187 (published 2026).

Where two headings read alike, the source gives them in different places.

The target in assay [1] is T1, CEACAM1-his (human).
T1 chain: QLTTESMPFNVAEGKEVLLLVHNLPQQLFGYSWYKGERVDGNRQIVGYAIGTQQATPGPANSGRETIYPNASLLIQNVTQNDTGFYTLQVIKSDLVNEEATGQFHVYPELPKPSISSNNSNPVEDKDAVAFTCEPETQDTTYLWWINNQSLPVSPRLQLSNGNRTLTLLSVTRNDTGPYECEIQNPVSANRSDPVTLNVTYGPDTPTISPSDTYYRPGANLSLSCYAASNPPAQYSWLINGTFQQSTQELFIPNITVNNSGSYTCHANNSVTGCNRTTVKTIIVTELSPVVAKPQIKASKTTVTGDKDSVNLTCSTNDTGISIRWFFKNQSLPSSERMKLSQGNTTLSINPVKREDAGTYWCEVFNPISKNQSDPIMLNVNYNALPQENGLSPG
The experiment in a line: BLI. In general terms: In BLI a coated tip is dipped into the sample, and binding shifts an interference pattern.

The target in assay [2] is T1, CEACAM1-his. The experiment in a line: BLI.
The target of assay [3] is CEACAM1 (cell surface) (human). The experiment in a line: FACS, HepG2. In general terms: A flow cytometer gives signals particle by particle.
Assay [4] has as its target CEACAM1 (cell surface) (human). The experiment in a line: FACS, BxPC-3.
For another assay, the target named is T2, CEACAM6 (human, UniProt P40199).
T2 chain: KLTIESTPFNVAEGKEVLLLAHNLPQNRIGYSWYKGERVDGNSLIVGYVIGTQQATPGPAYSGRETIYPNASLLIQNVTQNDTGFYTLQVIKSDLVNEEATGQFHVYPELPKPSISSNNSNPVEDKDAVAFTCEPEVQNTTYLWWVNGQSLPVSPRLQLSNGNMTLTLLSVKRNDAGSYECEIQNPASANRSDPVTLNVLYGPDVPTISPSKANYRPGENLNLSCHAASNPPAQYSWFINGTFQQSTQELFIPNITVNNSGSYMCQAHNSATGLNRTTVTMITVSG
The experiment in a line: BLI.

Assay [5] concerns the target T1, CEACAM1-his. The experiment in a line: BLI.
Assay [6] deals with CEACAM1 (cell surface) (human). The experiment in a line: FACS, Raji-CEACAM1.
Assay [7] concerns the target T1, CEACAM1-his. The experiment in a line: BLI.
The target of assay [8] is T1, CEACAM1-his. The experiment in a line: BLI.
Another assay concerns the target T3, CEACAM3 (human, UniProt P40198).
T3 chain: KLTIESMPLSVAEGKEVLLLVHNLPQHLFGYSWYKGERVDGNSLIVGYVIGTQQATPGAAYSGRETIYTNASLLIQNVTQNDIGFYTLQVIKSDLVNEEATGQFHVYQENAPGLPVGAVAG
The experiment in a line: BLI.

Another assay has as its target T4, CEACAM5 (human, UniProt P06731).
T4 chain: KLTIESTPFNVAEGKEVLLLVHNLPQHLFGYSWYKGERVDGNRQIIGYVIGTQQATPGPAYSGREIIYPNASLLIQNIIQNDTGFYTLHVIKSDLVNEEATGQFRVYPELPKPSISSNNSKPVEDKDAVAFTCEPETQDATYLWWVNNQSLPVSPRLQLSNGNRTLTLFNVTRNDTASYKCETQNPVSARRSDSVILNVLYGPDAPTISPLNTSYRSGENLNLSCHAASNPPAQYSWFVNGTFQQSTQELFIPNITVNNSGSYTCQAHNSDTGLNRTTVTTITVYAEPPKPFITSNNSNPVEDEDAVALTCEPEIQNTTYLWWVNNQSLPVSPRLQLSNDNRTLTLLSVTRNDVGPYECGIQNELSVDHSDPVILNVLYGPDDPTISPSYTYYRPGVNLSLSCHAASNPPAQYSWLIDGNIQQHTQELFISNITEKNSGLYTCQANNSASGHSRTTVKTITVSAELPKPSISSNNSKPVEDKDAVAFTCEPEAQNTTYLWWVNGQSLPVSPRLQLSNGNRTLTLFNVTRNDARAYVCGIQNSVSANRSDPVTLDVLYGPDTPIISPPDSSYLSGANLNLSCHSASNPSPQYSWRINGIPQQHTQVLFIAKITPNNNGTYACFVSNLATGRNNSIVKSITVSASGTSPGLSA
The experiment in a line: BLI.

For orientation: Kd means the equilibrium constant for the complex coming apart. A high value points to a looser complex. The EC50 is the concentration that produces a half-maximal response. Higher therefore signals lower potency in that assay.

Sequence of CEACAM1 (cell surface) (human) (chain, as listed by the source): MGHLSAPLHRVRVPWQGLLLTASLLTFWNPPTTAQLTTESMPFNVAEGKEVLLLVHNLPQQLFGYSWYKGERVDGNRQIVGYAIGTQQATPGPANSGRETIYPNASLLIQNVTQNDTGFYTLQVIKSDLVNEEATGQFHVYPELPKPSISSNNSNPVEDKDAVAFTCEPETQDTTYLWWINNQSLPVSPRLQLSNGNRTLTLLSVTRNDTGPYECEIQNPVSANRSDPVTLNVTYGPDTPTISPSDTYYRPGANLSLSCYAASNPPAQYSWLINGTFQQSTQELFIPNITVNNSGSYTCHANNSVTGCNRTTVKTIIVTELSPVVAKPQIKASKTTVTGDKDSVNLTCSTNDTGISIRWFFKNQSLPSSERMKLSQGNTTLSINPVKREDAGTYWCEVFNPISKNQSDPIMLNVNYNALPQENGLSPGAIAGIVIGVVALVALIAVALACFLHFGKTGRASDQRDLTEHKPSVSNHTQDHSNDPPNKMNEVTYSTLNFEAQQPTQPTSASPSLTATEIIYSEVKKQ

B1: h9D12.G4.H0bL7 (antibody, V domains shown)
VH: QVQLVQSGAEVKKPGASVKVSCKASGFNIKDTYMHWVRQAPGQGLEWMGRIDLASGDSKYDPKFQGRVTMTRDTSTSTVYMELSSLRSEDTAVYYCARAHFGGGNWYFDVWGQGTTVTVSS
VL: DIQLTQSPSFLSASVGDRVTITCSASSSVSYMHWYQQKPGQAPKPWIYEISKLASGVPSRFSGSGSGTEYTLTISSMQSEDFAVYYCQQWNYPLTFGQGTKLEIK
For the molecule B1, the Kd in the assay with CEACAM1-his [1] and with CEACAM1-his [2] was 3.68 nM in each case. Besides, the EC50 stood at 0.0974 µg/mL with CEACAM1 (cell surface) [3] and 0.0723 µg/mL in the assay with CEACAM1 (cell surface) [4].

B2: h9D12.G4.H0aL7 (antibody, V domains shown)
VH: EVQLVQSGAEVKKPGATVKISCKVSGFNIKDTYMHWVQQAPGKGLEWMGRIDLASGDSKYDPKFQGRVTITADTSTDTAYMELSSLRSEDTAVYYCARAHFGGGNWYFDVWGQGTTVTVSS
VL: DIQLTQSPSFLSASVGDRVTITCSASSSVSYMHWYQQKPGQAPKPWIYEISKLASGVPSRFSGSGSGTEYTLTISSMQSEDFAVYYCQQWNYPLTFGQGTKLEIK
As for B2, the Kd in the assay with CEACAM1-his [1] and with CEACAM1-his [2] was 3.39 nM throughout.

B3: h9D12.G4.H4L7 (antibody, V domains shown)
VH: QVQLVQSGAEVKKPGASVKVSCKASGFNIKDTYMHWVRQAPGQGLEWIGRIDLASGDSKYDPKFQGRVTMTADTSTSTVYMELSSLRSEDTAVYYCARAHFGGGNWYFDVWGQGTTVTVSS
VL: DIQLTQSPSFLSASVGDRVTITCSASSSVSYMHWYQQKPGQAPKPWIYEISKLASGVPSRFSGSGSGTEYTLTISSMQSEDFAVYYCQQWNYPLTFGQGTKLEIK
Consider B3, for which the Kd in the assay with CEACAM1-his [1] and with CEACAM1-his [2] was 2.46 nM throughout.

B4: 9D12 (antibody, V domains shown)
VH: EVQLQQSGAELVKPGASVKLSCTASGFNIKDTYMHWVKQRPEQGLEWIGRIDLASGDSKYDPKFQGKATITADTSSNTAYLQFSSLTSEDTAVYYCARAHFGGGNWYFDVWGAGTTVTVSS
VL: EIVLTQSPAITAASLGQKVTITCSASSSVSYMHWYQQKSGTSPKPWIYEISKLASGVPARFSGSGSGTSYSLTISSMEAEDAAIYYCQQWNYPLTFGAGTKLELK
With B4, in the assay with CEACAM6, the binding result is “no binding”. In the assay with CEACAM1-his [5], this molecule yielded a Kd of 2.9 nM.

B5: 7D4 (antibody, V domains shown)
VH: EVQLQQSGAELVRPGASVKLSCTASGFNLKDTYMHWVKQRPEQGLEWIGRIDPSDGDTKYGPKFQDKTTITADTSSNTAYLQLSSLTSEDAAVYYCARAHFGGGGWYFDVWGAGTTVTVSS
VL: EIVLTQSPAITAASLGQKVTITCSASSSVGYMHWYQQKSGTSPKPWIYEISKLASGVPARFSGSGSGTSYSLTIRNMEAEDAAIYYCQQWNYPLTFGAGTKLELK
In the case of B5, the binding result in the assay with CEACAM6 is recorded as “no binding”. The affinity with CEACAM1-his [5], expressed as Kd, was 6.97 nM.

B6: h2C10.G4.H0aL4 (antibody, V domains shown)
VH: QVQLVQSGAEVKKPGASVKVSCKASGFAFTNYLIEWVRQAPGQGLEWMGVLNPGSGATNYNEKFKGRVTMTRDTSISTAYMELSRLRSDDTAVYYCARGIYGGYFAMDYWGQGTLVTVSS
VL: DIQMTQSPSSLSASVGDRVTITCRASQDITTYLNWYQQKPGGAPKLLIYYTSRLHSGVPSRFSGSGSGTDFTLTISSLQPEDIATYYCQQGNTLPRTFGGGTKLEIK
With B6, the Kd with CEACAM1-his [1] and with CEACAM1-his [2] was 1.83 nM throughout. Besides, the EC50 with CEACAM1 (cell surface) [3] is 0.0491 µg/mL; with CEACAM1 (cell surface) [4] it was 0.031 µg/mL; in the assay with CEACAM1 (cell surface) [6] it was 0.0862 µg/mL.

B7: h2C10.G4.H0aL2 (antibody, V domains shown)
VH: QVQLVQSGAEVKKPGASVKVSCKASGFAFTNYLIEWVRQAPGQGLEWMGVLNPGSGATNYNEKFKGRVTMTRDTSISTAYMELSRLRSDDTAVYYCARGIYGGYFAMDYWGQGTLVTVSS
VL: DIQMTQSTSSLSASVGDRVTITCRASQDITTYLNWYQQKPGGAPKLLIYYTSRLHSGVPSRFSGSGSGTDYTLTISSLQPEDIATYYCQQGNTLPRTFGGGTKLEIK
Take B7: the Kd in the assay with CEACAM1-his [1] and in the assay with CEACAM1-his [2] was 0.85 nM each time. For the same molecule, the results for the EC50 with CEACAM1 (cell surface) [3], with CEACAM1 (cell surface) [4] and in the assay with CEACAM1 (cell surface) [6] were 0.0684 µg/mL, 0.0464 µg/mL and 0.0746 µg/mL, respectively.

B8: h4D10.G4.H4L2 (antibody, V domains shown)
VH: QVQLVQSGAEVKKPGASVKVSCKASGYTFSSYVIHWVRQAPGQGLEWMGYFNPYNNGTNYNENFKGRVTMTADTSTSTVYMELSSLRSEDTAVYYCARYYYASGSLYFDYWGQGTTVTVSS
VL: DIQMTQSPSTLSASVGDRVTITCSASSSVSYMHWYQQKPGKAPKPLIYEISKLASGVPSRFSGSGSGTEFTLTISSLQPDDAATYYCQQWNYPLITFGGGTKVEIK
Regarding B8, the Kd turned out to be 1.7 nM with CEACAM1-his [1], 1.7 nM with CEACAM1-his [2] and 2.65 nM with CEACAM1-his [7]. The EC50 is 0.039 µg/mL with CEACAM1 (cell surface) [3], 0.0263 µg/mL in the assay with CEACAM1 (cell surface) [4] and 0.0699 µg/mL in the assay with CEACAM1 (cell surface) [6].

B9: h4D10.G4.H4(N56Q Y100F)L2 (antibody, V domains shown)
VH: QVQLVQSGAEVKKPGASVKVSCKASGYTFSSYVIHWVRQAPGQGLEWMGYFNPYNQGTNYNENFKGRVTMTADTSTSTVYMELSSLRSEDTAVYYCARYFYASGSLYFDYWGQGTTVTVSS
VL: DIQMTQSPSTLSASVGDRVTITCSASSSVSYMHWYQQKPGKAPKPLIYEISKLASGVPSRFSGSGSGTEFTLTISSLQPDDAATYYCQQWNYPLITFGGGTKVEIK
In the case of B9, the Kd came to 2.02 nM with CEACAM1-his [1] and 3.31 nM with CEACAM1-his [7]. In the assay with CEACAM1 (cell surface) [4], this molecule returned an EC50 of 0.0211 µg/mL.

B10: h4D10.G4.H4(N56Q Y100F)L2(S28F S51M K52R) (antibody, V domains shown)
VH: QVQLVQSGAEVKKPGASVKVSCKASGYTFSSYVIHWVRQAPGQGLEWMGYFNPYNQGTNYNENFKGRVTMTADTSTSTVYMELSSLRSEDTAVYYCARYFYASGSLYFDYWGQGTTVTVSS
VL: DIQMTQSPSTLSASVGDRVTITCSASSFVSYMHWYQQKPGKAPKPLIYEIMRLASGVPSRFSGSGSGTEFTLTISSLQPDDAATYYCQQWNYPLITFGGGTKVEIK
In the assay with CEACAM1-his [8], B10 returned an equilibrium dissociation constant (Kd) of 0.151 nM.

B11: 2C10 (antibody, V domains shown)
VH: QVQLQQSGAELVRPGTSVKVSCKASGFAFTNYLIEWVKQRPGQGLEWIGVLNPGSGATNYNEKFKGKATLTADKSSSTAYMQLSSLTSDDSAVYFCARGIYGGYFAMDYWGQGTSVTVSS
VL: DIQMTQTTSSLSASLGDRVTISCRASQDITTYLNWYQQRPDGTVKLLIYYTSRLHSGVPSRFSGSGSGTEYSLTISNLEQEDIATYFCQQGNTLPRTFGGGTKLEIR
With B11, the binding result with CEACAM6 and with CEACAM3 was “no binding” in each case. This molecule displayed a Kd with CEACAM1-his [5] of 0.955 nM.

B12: 4D10 (antibody, V domains shown)
VH: EVQLQQSGPELVKPGASVKMSCKASGYTFSSYVIHWVRQKPGQGLEWIGYFNPYNNGTNYNENFKGKATLTSGKSSSTAYMELSSLTSEDSAVYYCARYYYASGSLYFDYWGQGTTLTVSS
VL: EIVLTQSPAIATASLGQKVTITCSASSSVSYMHWYQQKSGTSPKPWIYEISKLASGVPTRFSGSGSGTSYSLTISSMEAEDAAIYYCQQWNYPLITFGAGTKLELK
In the case of B12, the binding result with CEACAM6, in the assay with CEACAM5 and in the assay with CEACAM3 was “no binding” throughout.
